Test results: patent US20240285759A1 (published 2024)

T1: NRAS Q61K (RAS Q61K; the filing also names KRAS and HRAS comprising this peptide) peptide on HLA-A*01:01 (human)
T1 peptide: ILDTAGKEEY

T2: NRAS Q61R (RAS Q61R; the filing also names KRAS and HRAS comprising this peptide) peptide on HLA-A*01:01 (human)
T2 peptide: ILDTAGREEY

T3: NRAS wild type (RAS wild type) peptide on HLA-A*01:01 (human)
T3 peptide: ILDTAGQEEY

B1: TCR1 (TCR, V domains shown)
Valpha: GQQLNQSPQSMFIQEGEDVSMNCTSSSIFNTWLWYKQEPGEGPVLLIALYKAGELTSNGRLTAQFGITRKDSFLNISASIPSDVGIYFCAGRDDAGNMLTFGGGTRLMVKP
Vbeta: GAVVSQHPSRVICKSGTSVKIECRSLDFQATTMFWYRQFPKKSLMLMATSNEGSKATYEQGVEKDKFLINHASLTLSTLTVTSAHPEDSSFYICSASVRMNTEAFFGQGTRLTVV
B2: TCR2 (TCR, V domains shown)
Valpha: GESVGLHLPTLSVQEGDNSIINCAYSNSASDYFIWYKQESGKGPQFIIDIRSNMDKRQGQRVTVLLNKTVKHLSLQIAATQPGDSAVYFCAENIRLTGANNLFFGTGTRLTVIP
Vbeta: GAVVSQHPSWVICKSGTSVKIECRSLDFQATTMFWYRQFPKQSLMLMATSNEGSKATYEQGVEKDKFLINHASLTLSTLTVTSAHPEDSSFYICSARLLSYEQYFGPGTRLTVT

How the values were obtained:
Assay in all cases: cytokine release
[1] = target: T1, NRAS Q61K (RAS Q61K; the filing also …)
[2] = target: T2, NRAS Q61R (RAS Q61R; the filing also …)
[3] = target: T3, NRAS wild type (RAS wild type) peptide …

Binder | binding result [1] | binding result [2] | binding result [3]
B1 | recognises | recognises | no recognition
B2 | – | recognises | no recognition
